Assay results as given in ChEMBL document CHEMBL3525898, “Pharmacogenomics of gemcitabine metabolism: functional analysis of genetic variants in cytidine deaminase and deoxycytidine kinase” (Drug Metab Dispos, 2013).

Substrate: Nc1ccn([C@@H]2O[C@H](CO)[C@@H](O)C2(F)F)c(=O)n1
Test: Activity of human recombinant N-terminal His-SUMO fused wild type CDA expressed in Escherichia coli BL21(DE3) cells assessed as 2',2'-difluorodeoxyuridine formation by liquid chromatography-tandem mass spectrometry
Type: ADME

B1: Cytidine deaminase (Homo sapiens) (protein)
chain: MAQKRPACTLKPECVQQLLVCSQEAKKSAYCPYSHFPVGAALLTQEGRIFKGCNIENACYPLGICAERTAIQKAVSEGYKDFRAIAIASDMQDDFISPCGACRQVMREFGTNWPVYMTKPDGTYIVMTVQELLPSSFGPEDLQKTQ
  Km: 630 µM
  Vmax: 0.187 µmol/min/mg
